# In patent publication CN117886935A (BEIJING KENUO XINCHENG TECH CO LTD, dated 2024):
# Residue numbers refer to the chain shown, from its start.
# B1: hz73 (antibody, V domains shown)
# VH: EVQLVQSGAEVKKPGASVKVSCKASGYTFTDYNMDWVRQAPGQGLEWMGDIIPNYDSATYNQKFKGRVTMTRDTSTSTVYMELSSLRSEDTAVYYCARKGGGYVNWYFDVWGQGTTVTVSS
# VL: DIQMTQSPSSLSASVGDRVTITCHASQNINVWLSWYQQKPGKAPKLLIYKASNLHTGVPSRFSGSGSGTDFTFTISSLQPEDIATYYCQQGESYPYTFGGGTKVEIK
# notes: also called 人源化抗体hz73
# B2: Cabiralizumab (FPA-008) (antibody, V domains shown)
# VH: QVQLVQSGAEVKKPGSSVKVSCKASGYTFTDNYMIWVRQAPGQGLEWMGDINPYNGGTTFNQKFKGRVTITADKSTSTAYMELSSLRSEDTAVYYCARESPYFSNLYVMDYWGQGTLVTVSS
# VL: EIVLTQSPATLSLSPGERATLSCKASQSVDYDGDNYMNWYQQKPGQAPRLLIYAASNLESGIPARFSGSGSGTDFTLTISSLEPEDFAVYYCHLSNEDLSTFGGGTKVEIK
# notes: Control antibody, synthesised after CN107011438 A; also called Cabirlizumab; 对照抗体
# B3: ch73 (antibody, human IgG1, kappa, V domains shown)
# VH: EVQLQQFGAELVKPGASVKISCKASGYTFTDYNMDWMKQSHGKSLEWIGDIIPNYDSATYNQKFKGKATLTVDRSSSTAYMELRSLSSEDTAVYYCARKGGGYVNWYFDVWGAGTTVTVSS
# VL: DIQMNQSPSSLSASLGDTITITCHASQNINVWLSWYQQKPGNIPKLLIYKASNLHTGVPSRFSGSGSGTGFTLTISSLQPEDIATYYCQQGESYPYTFGGGTKLEIKR
# notes: also called 嵌合抗体ch73; 73号
# B4: Lm3H (antibody, V domains shown)
# VH: B1 VH
# VL: B1 VL with S34N
# B5: Hm6L (antibody, V domains shown)
# VH: B1 VH with N61A
# VL: B1 VL
# B6: Lm7H (antibody, V domains shown)
# VH: B1 VH
# VL: B1 VL with H24R, K50D, H55E
# B7: Hm5L (antibody, V domains shown)
# VH: B1 VH with D56E
# VL: B1 VL
# B8: Hm2L (antibody, V domains shown)
# VH: B1 VH with D31S
# VL: B1 VL
# B9: Lm4Hm7 (antibody, V domains shown)
# VH: B1 VH with D31S, D35H, D56E, N61A
# VL: B1 VL with W32Y, S34N
# B10: Lm7Hm7 (antibody, V domains shown)
# VH: B1 VH with D31S, D35H, D56E, N61A
# VL: B1 VL with H24R, K50D, H55E
# B11: Lm6H (antibody, V domains shown)
# VH: B1 VH
# VL: B1 VL with H55E
# B12: Hm3L (antibody, V domains shown)
# VH: B1 VH with D35H
# VL: B1 VL
# B13: Lm1H (antibody, V domains shown)
# VH: B1 VH
# VL: B1 VL with H24R
# B14: Lm4H (antibody, V domains shown)
# VH: B1 VH
# VL: B1 VL with W32Y, S34N
# B15: Lm5H (antibody, V domains shown)
# VH: B1 VH
# VL: B1 VL with K50D
# B16: Hm1L (antibody, V domains shown)
# VH: B1 VH with D31E
# VL: B1 VL
# B17: Lm2H (antibody, V domains shown)
# VH: B1 VH
# VL: B1 VL with W32Y
# B18: Hm4L (antibody, V domains shown)
# VH: B1 VH with D50G
# VL: B1 VL
# Biological target: CSF-1R on CSF-1R/SRE-Luc/HEK293 reporter cells (UniProt P07333 20-972, limits assumed)
# Assay: cell-based or functional assay
# Sequence of CSF-1R on CSF-1R/SRE-Luc/HEK293 reporter cells (P07333 20-972 limits assumed): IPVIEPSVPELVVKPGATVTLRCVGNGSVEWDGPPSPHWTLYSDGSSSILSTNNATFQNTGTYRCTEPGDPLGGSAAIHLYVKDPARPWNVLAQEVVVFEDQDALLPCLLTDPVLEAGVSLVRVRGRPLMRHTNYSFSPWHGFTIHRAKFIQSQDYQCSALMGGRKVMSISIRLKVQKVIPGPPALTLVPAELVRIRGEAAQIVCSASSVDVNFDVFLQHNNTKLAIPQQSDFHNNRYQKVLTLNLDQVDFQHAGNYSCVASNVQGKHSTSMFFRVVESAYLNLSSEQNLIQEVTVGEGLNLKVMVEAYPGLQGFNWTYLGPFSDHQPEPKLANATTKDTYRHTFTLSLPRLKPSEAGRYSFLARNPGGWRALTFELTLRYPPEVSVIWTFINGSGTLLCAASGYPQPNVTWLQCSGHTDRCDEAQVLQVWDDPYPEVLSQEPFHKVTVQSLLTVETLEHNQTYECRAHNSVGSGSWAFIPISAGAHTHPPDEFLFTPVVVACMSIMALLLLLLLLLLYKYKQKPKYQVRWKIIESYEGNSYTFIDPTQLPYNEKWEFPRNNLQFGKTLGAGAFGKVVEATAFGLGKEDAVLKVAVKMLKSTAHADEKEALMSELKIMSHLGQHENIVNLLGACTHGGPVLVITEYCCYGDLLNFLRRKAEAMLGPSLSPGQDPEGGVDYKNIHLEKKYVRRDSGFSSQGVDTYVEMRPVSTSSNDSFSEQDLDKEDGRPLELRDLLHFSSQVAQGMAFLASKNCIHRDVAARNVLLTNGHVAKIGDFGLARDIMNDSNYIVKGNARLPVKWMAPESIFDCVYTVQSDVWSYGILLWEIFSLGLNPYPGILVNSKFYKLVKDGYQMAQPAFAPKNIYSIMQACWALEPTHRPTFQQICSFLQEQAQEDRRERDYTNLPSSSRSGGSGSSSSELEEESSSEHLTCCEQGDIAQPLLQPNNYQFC
"IC50, inhibition of CSF-1-stimulated (7.2 ng/ml) SRE-Luc reporter in CSF-1R/SRE-Luc/HEK293 cells [µg/mL]","IC50, inhibition of IL-34-stimulated (85.06 ng/ml) SRE-Luc reporter in CSF-1R/SRE-Luc/HEK293 cells [µg/mL]",Binder
0.31,0.8,B1
0.21,0.34,B2

# Biological target: T1, 人CSF-1R-his重组蛋白 (human CSF-1R-his recombinant protein) (human, UniProt P07333 20-512, limits assumed)
# T1 construct: Analyte of the ForteBio assay, 60 nM; also called CD115; M-CSF-R; not shown: His tag
# Assay: BLI (ForteBio), antibody on AHC probe, CSF-1R-his 60 nM, 1:1 fit
# T1 sequence (P07333 20-512 limits assumed): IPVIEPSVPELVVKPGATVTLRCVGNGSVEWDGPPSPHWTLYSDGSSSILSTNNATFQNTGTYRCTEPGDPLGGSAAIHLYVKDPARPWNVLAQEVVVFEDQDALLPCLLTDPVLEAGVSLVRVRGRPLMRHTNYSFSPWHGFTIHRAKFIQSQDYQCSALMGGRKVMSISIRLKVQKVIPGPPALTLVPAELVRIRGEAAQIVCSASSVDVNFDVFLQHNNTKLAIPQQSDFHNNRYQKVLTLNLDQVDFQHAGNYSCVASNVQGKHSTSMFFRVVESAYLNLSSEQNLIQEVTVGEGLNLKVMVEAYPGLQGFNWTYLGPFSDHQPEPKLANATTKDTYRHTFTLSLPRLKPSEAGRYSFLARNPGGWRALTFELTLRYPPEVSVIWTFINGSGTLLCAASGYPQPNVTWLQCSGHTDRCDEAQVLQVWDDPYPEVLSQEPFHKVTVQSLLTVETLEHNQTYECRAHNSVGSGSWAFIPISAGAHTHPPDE
Kd [nM],koff [s⁻¹],kon [M⁻¹ s⁻¹],Binder
0.03,6.54e-06,218000,B3
2.38,0.000228,95800,B2

# Biological target: T2, CSF-1R-mFc (human, UniProt P07333 20-512, limits assumed)
# T2 construct: not shown: mouse Fc (mFc)
# Assay: competition ELISA: CSF1-His coated, CSF-1R-mFc 0.15 μg/ml premixed with antibody
# T2 sequence (P07333 20-512 limits assumed): as above
row,IC50 [nM],Binder
1,0.339,B1
2,0.323,B3
3,0.3,B2

# Biological target: T3, CSF-1R on rhCSF-1R-CHO cells (human, UniProt P07333 20-972)
# T3 construct: whole, on cells; also called 细胞表面CSF-1R; CSF-1R-CHO细胞
# Assay: flow cytometry on rhCSF-1R-CHO cells, FITC goat anti-human
# T3 sequence (P07333 20-972): as the sequence (P07333 20-972 limits assumed) above
row,EC50 [µg/mL],Binder
1,0.196,B1
2,0.253,B4
3,0.199,B5
4,0.201,B6
5,0.109,B2

# Biological target: T1, 人CSF-1R-his重组蛋白 (human CSF-1R-his …)
# Assay: BLI (ForteBio)
Kd [nM],koff [s⁻¹],kon [M⁻¹ s⁻¹],Binder
0.0605,1.3e-05,215000,B1
0.0794,2.55e-05,321000,B7
0.0963,2.9e-05,301000,B8
0.138,2.02e-05,146000,B9
0.107,1.23e-05,115000,B10
0.0935,1.45e-05,155000,B4
0.188,1.9e-05,101000,B11
0.082,2.1e-05,256000,B12
0.0683,1.4e-05,205000,B13
0.0785,1.53e-05,195000,B5
0.189,1.93e-05,102000,B14
0.105,2.1e-05,200000,B15
0.0634,1.3e-05,205000,B6
0.0853,2.2e-05,258000,B16
0.109,1.14e-05,105000,B17
0.125,1.4e-05,112000,B18
0.03,6.54e-06,218000,B3

# Biological target: T2, CSF-1R-mFc
# Assay: competition ELISA: human IL-34 coated, CSF-1R-mFc 0.15 μg/ml premixed with antibody
row,IC50 [nM],Binder
1,0.393,B1
2,~0.71,B3
3,~0.752,B2
